± gives the uncertainty stated by the source.

The values below come from the Human Domainome abundance scans (Beltran et al. 2025).

To fix the notation:
B1: POU domain, class 4, transcription factor 2, residues 256 to 327; numbered along this chain, Q12837 (parent)
chain: RDLEAFAERFKQRRIKLGVTQADVGSALANLKIPGVGSLSQSTICRFESLTLSHNNMIALKPILQAWLEEAE

This series covers variants of B1. Description: abundance fitness (aPCA) (normalised: wild type 0, dead -1); higher = more abundant; growth selection in yeast, the domain comes from the species named. As to conditions: Homo sapiens.
With V36K, the abundance fitness was -0.532 ± 0.14.
To V36R belongs -0.617 ± 0.071; to V36Q, -0.147 ± 0.072; to V36C, -0.4 ± 0.15.
With V36Y, the abundance fitness was -0.047 ± 0.25.
Turning to V36H, the abundance fitness is -0.267 ± 0.19.
To V36N belongs -0.387 ± 0.19; to V36S, -0.186 ± 0.071.
For the variant V36E, the abundance fitness was -0.139 ± 0.12.
Regarding V36F, the abundance fitness was -0.176 ± 0.18.
Consider V36I, for which the abundance fitness amounted to 0.166 ± 0.17.
As for A66W, the abundance fitness is -0.138 ± 0.088.
Turning to A66T, the abundance fitness was -0.096 ± 0.096.
As for A66P, the abundance fitness was -0.524 ± 0.068.
For L17N, the abundance fitness was -0.458 ± 0.27.
Turning to L17T, the abundance fitness was -0.272 ± 0.11.
As for L17W, the figure is -0.589 ± 0.095; as for L17R, -0.733 ± 0.074.
For L17C, the abundance fitness was -0.704 ± 0.12.
P34R: the abundance fitness was -0.231 ± 0.05.
As for P34Y, the figure is -0.515 ± 0.36.
Turning to P34A, the abundance fitness was -0.244 ± 0.094.
With P34Q, the abundance fitness is -0.263 ± 0.1.
In the case of P34M, the abundance fitness was -0.175 ± 0.13.
As to P34H, the abundance fitness is -0.073 ± 0.12.
For P34W, the abundance fitness was -0.528 ± 0.12.
With S53K, the abundance fitness was -0.738 ± 0.35.
In the case of S53Y, the abundance fitness is -0.556 ± 0.18.
As for K16T, the figure is -0.015 ± 0.072; as for K16V, -0.146 ± 0.082; as for K16D, -0.392 ± 0.16.
Turning to K16G, the abundance fitness is -0.026 ± 0.086.
As for K16Q, the abundance fitness came to 0.004 ± 0.076.
To K16S belongs -0.018 ± 0.052; to K16M, 0.11 ± 0.12; to D2E, -0.102 ± 0.13.
Turning to D2H, the abundance fitness was -0.497 ± 0.33.
As for D2C, the figure is -0.511 ± 0.32; as for D2N, 0.077 ± 0.14; as for D2W, -0.185 ± 0.32.
As for D2P, the figure is -0.266 ± 0.069.
For the variant L3G, the abundance fitness is -0.947 ± 0.14.
To L3H belongs -0.368 ± 0.11; to W67R, -0.755 ± 0.36.
Take K11G: the abundance fitness is -0.678 ± 0.093.
For K11Q, the abundance fitness was -0.34 ± 0.13.
For K11L, the abundance fitness is -0.661 ± 0.094.
K11M: the abundance fitness is -0.706 ± 0.13.
As to K11Y, the abundance fitness is -0.781 ± 0.32.
Take K11W: the abundance fitness is -0.701 ± 0.2.
With K11F, the abundance fitness was -0.761 ± 0.19.
With E8D, the abundance fitness is -0.172 ± 0.079.
For E8T, the abundance fitness was -0.222 ± 0.079.
Turning to E8A, the abundance fitness is -0.232 ± 0.071.
With E8F, the abundance fitness is -0.306 ± 0.16.
Turning to E8N, the abundance fitness turned out to be 0.049 ± 0.096.
Regarding E8I, the abundance fitness was determined as 0 ± 0.1.
To E8C belongs -0.313 ± 0.076.
With L64D, the abundance fitness is -0.6 ± 0.2.
On to L64T, for which the abundance fitness was -0.769 ± 0.13.
Consider L64Y, for which the abundance fitness is -0.416 ± 0.33.
For the variant L64H, the abundance fitness was -0.769 ± 0.21.
For L64A, the abundance fitness is -0.902 ± 0.2.
L64P: the abundance fitness is -0.98 ± 0.12.
Consider E69V, for which the abundance fitness was -0.178 ± 0.095.
E69I: the abundance fitness is -0.248 ± 0.17.
Take E69R: the abundance fitness was -0.211 ± 0.07.
Regarding E69G, the abundance fitness is -0.18 ± 0.07.
With E69L, the abundance fitness is -0.099 ± 0.1.
Consider E69Q, for which the abundance fitness is -0.001 ± 0.17.
Consider E69C, for which the abundance fitness was -0.062 ± 0.12.
For the variant N56H, the abundance fitness was 0.128 ± 0.16.
With N56A, the abundance fitness is -0.041 ± 0.094.
N56S: the abundance fitness amounted to 0.077 ± 0.078.
With L31Q, the abundance fitness amounted to 0.058 ± 0.08.
On to L31I, for which the abundance fitness amounted to 0.057 ± 0.24.
On to L31A, for which the abundance fitness was -0.426 ± 0.13.
As for L31P, the abundance fitness is -0.382 ± 0.098.
For I33M, the abundance fitness is -0.162 ± 0.094.
As for I33D, the abundance fitness was -0.225 ± 0.099.
Turning to I33Y, the abundance fitness is -0.126 ± 0.11.
To I33K belongs -0.421 ± 0.094; to I33S, -0.274 ± 0.048; to I33F, -0.211 ± 0.093.
Take I63H: the abundance fitness was found to be 0.07 ± 0.084.
For I63D, the abundance fitness was -0.438 ± 0.12.
Turning to I63V, the abundance fitness was -0.006 ± 0.035.
For the variant I63Q, the abundance fitness was -0.489 ± 0.14.
Take I63M: the abundance fitness is -0.382 ± 0.18.
As to S49W, the abundance fitness is -0.485 ± 0.22.
With S49P, the abundance fitness was -0.537 ± 0.099.
As for S49R, the figure is 0.032 ± 0.07.
As for S49H, the abundance fitness was -0.587 ± 0.3.
On to S49T, for which the abundance fitness was -0.035 ± 0.12.
Turning to L68M, the abundance fitness is -0.461 ± 0.26.
Take L68W: the abundance fitness is -0.663 ± 0.49.
Take L68N: the abundance fitness was -0.232 ± 0.23.
For the variant L68Q, the abundance fitness is -0.107 ± 0.22.
For L68D, the abundance fitness is -0.617 ± 0.21.
For L68P, the abundance fitness is -0.589 ± 0.39.
To L68V belongs -0.384 ± 0.19.
With L68T, the abundance fitness was -0.733 ± 0.3.
For the variant A27W, the abundance fitness was -0.174 ± 0.082.
As for A27R, the figure is -0.178 ± 0.045.
Turning to A27E, the abundance fitness was -0.029 ± 0.11.
As for A27V, the figure is -0.265 ± 0.092; as for H54G, -0.314 ± 0.064; as for H54N, -0.138 ± 0.1.
In the case of H54E, the abundance fitness is -0.3 ± 0.34.
As for H54L, the abundance fitness was -0.042 ± 0.049.
On to H54D, for which the abundance fitness is -0.183 ± 0.21.
Regarding S40W, the abundance fitness was -0.779 ± 0.18.
To S40M belongs -0.723 ± 0.42; to S40P, -0.193 ± 0.028.
With S40R, the abundance fitness was -0.312 ± 0.059.
To A22I belongs -0.393 ± 0.17; to A22P, -0.463 ± 0.078.
With A22R, the abundance fitness was -0.138 ± 0.049.
Regarding F10T, the abundance fitness is -0.707 ± 0.12.
As for F10L, the figure is -0.921 ± 0.14.
N55R: the abundance fitness is -0.055 ± 0.043.
Regarding N55A, the abundance fitness was determined as 0.137 ± 0.086.
To N55F belongs -0.396 ± 0.13; to N55V, -0.013 ± 0.1; to N55E, -0.184 ± 0.39.
For N55T, the abundance fitness was -0.024 ± 0.074.
As for N55M, the figure is -0.253 ± 0.15.
On to G37Y, for which the abundance fitness was -0.418 ± 0.23.
Consider G37P, for which the abundance fitness was -0.2 ± 0.1.
For the variant G37E, the abundance fitness is -0.207 ± 0.12.
Take G37W: the abundance fitness was -0.68 ± 0.14.
As for G37I, the figure is -0.587 ± 0.28; as for G37H, 0.083 ± 0.16; as for Q12A, 0.045 ± 0.056.
Regarding Q12P, the abundance fitness was -1.22 ± 0.32.
Regarding Q12E, the abundance fitness is -0.016 ± 0.1.
In the case of Q12F, the abundance fitness was -0.298 ± 0.21.
With R13N, the abundance fitness is -0.401 ± 0.14.
R13S: the abundance fitness was -0.014 ± 0.054.
As to R13P, the abundance fitness is -1.02 ± 0.14.
As for R13G, the figure is -0.067 ± 0.069; as for S38G, -0.091 ± 0.049; as for S38A, -0.013 ± 0.046.
As to S38D, the abundance fitness is -0.277 ± 0.12.
In the case of S38R, the abundance fitness is -0.022 ± 0.045.
To S38Y belongs 0.026 ± 0.032.
To Q41G belongs 0.041 ± 0.048; to Q41T, 0.077 ± 0.087; to T51W, -0.78 ± 0.37.
In the case of T51P, the abundance fitness was -1.08 ± 0.32.
With T51A, the abundance fitness is -0.035 ± 0.033.
Consider V24W, for which the abundance fitness is -0.781 ± 0.11.
Turning to V24C, the abundance fitness is -0.1 ± 0.11.
For the variant A59Q, the abundance fitness was 0.062 ± 0.082.
As for A59L, the figure is -0.091 ± 0.049; as for A59H, -0.249 ± 0.11.
On to A59W, for which the abundance fitness is -0.087 ± 0.074.
In the case of R9L, the abundance fitness came out at 0.1 ± 0.052.
As to R9D, the abundance fitness came to 0.307 ± 0.12.
With R9Y, the abundance fitness was -0.055 ± 0.15.
On to V19K, for which the abundance fitness worked out at 0.258 ± 0.32.
As for V19P, the figure is -0.987 ± 0.14; as for V19H, -0.12 ± 0.13.
Turning to V19L, the abundance fitness was 0.004 ± 0.049.
As for V19T, the abundance fitness is -0.307 ± 0.067.
In the case of V19I, the abundance fitness was -0.189 ± 0.11.
To V19R belongs 0.03 ± 0.042.
